Laboratory results published in the supplement of paper PMC11316812.
± gives the standard deviation of the averaged measurements.

What was measured:
hTERT-HMEC = assay: percentage of EdU-negative (G0-arrested) nuclei per well, 72 h; higher = more G0 arrest; conditions: reference: sequence is the full UniProt precursor, the tested protein was the secreted form or ectodomain
MCF7 = assay: as above; conditions: reference: sequence is the full UniProt precursor, the tested protein was the secreted form or ectodomain
[1] = protein concentration 0.0065 µM
[2] = protein concentration 0.0225 µM
[3] = protein concentration 0.0199575 µM
[4] = protein concentration 0.03125 µM
[5] = protein concentration 0.199575 µM
[6] = protein concentration 0.3125 µM
[7] = protein concentration 0.019925 µM
[8] = protein concentration 0.19925 µM
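Further: secreted proteins added to cultured cells, EdU pulse at the end, nuclei found by Hoechst imaging, EdU status from nuclear versus surrounding ring intensity ratio, PBS as neutral control.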

Question: Which “percentage of EdU-negative” value (hTERT-HMEC; [1]) does the source give for “MAVVPLLLLGGLWSAVGASSLGVVTCGSVVKLLNTRHNVRLHSHDVRYGSGSGQQSVTGVTSVDDSNSYWRIRGKSATVCERGTPIKCGQPIRLTHVNTGRNLHSHHFTSPLSGNQEVSAFGEEGEGDYLDDWTVLCNGPYWVRDGEVRFKHSSTEVLLSVTGEQYGRPISGQKEVHGMAQPSQNNYWKAMEGIFMKPSELLKAEAHHAEL” here?
Answer: 5.43 ± 0.74%

Question: And the “percentage of EdU-negative” value (hTERT-HMEC; protein concentration 0.065 µM)?
Answer: 7.72 ± 0.45%

Question: And the “percentage of EdU-negative” value (MCF7; [1])?
Answer: 24.7 ± 0.39%

Question: What about the “percentage of EdU-negative” value (MCF7; protein concentration 0.065 µM) of the same sequence?
Answer: 25.8 ± 1.1%

Question: With “MRPLLCALTGLALLRAAGSLAAAEPFSPPRGDSAQSTACDRHMAVQRRLDVMEEMVEKTVDHLGTEVKGLLGLLEELAWNLPPGPFSPAPDLLGDGF [Q5JTB6]” as the sequence, how does the “percentage of EdU-negative” value (hTERT-HMEC; [2]) read?
Answer: 4.3 ± 0.46%

Question: And the “percentage of EdU-negative” value (hTERT-HMEC; protein concentration 0.225 µM)?
Answer: 5.25 ± 0.17%

Question: And the “percentage of EdU-negative” value (MCF7; [2])?
Answer: 28.1 ± 2.1%

Question: And the “percentage of EdU-negative” value (MCF7; protein concentration 0.225 µM)?
Answer: 26 ± 1.2%

Question: With “MWDLVLSIALSVGCTGAVPLIQSRIVGGWECEKHSQPWQVAVYSHGWAHCGGVLVHPQWVLTAAHCLKKNSQVWLGRHNLFEPEDTGQRVPVSHSFPHPLYNMSLLKHQSLRPDEDSSHDLMLLRLSEPAKITDVVKVLGLPTQEPALGTTCYASGWGSIEPEEFLRPRSLQCVSLHLLSNDMCARAYSEKVTEFMLCAGLWTGGKDTCGGDSGGPLVCNGVLQGITSWGPEPCALPEKPAVYTKVVHYRKWIKDTIAANP” as the sequence, how does the “percentage of EdU-negative” value (hTERT-HMEC; [2]) read?
Answer: 4.38 ± 0.36%

Question: And the “percentage of EdU-negative” value (hTERT-HMEC; protein concentration 0.225 µM)?
Answer: 5.65 ± 0.28%

Question: What about the “percentage of EdU-negative” value (MCF7; [2]) of the same sequence?
Answer: 23.8 ± 1.7%

Question: And the “percentage of EdU-negative” value (MCF7; protein concentration 0.225 µM)?
Answer: 24.8 ± 1.2%

Question: With “MGTTARAALVLTYLAVASAASEGGFTATGQRQLRPEHFQEVGYAAPPSPPLSRSLPMDHPDSSQHGPPFEGQSQVQPPPSQEATPLQQEKLLPAQLPAEKEVGPPLPQEAVPLQKELPSLQHPNEQKEGTPAPFGDQSHPEPESWNAAQHCQQDRSQGGWGHRLDGFPPGRPSPDNLNQICLPNRQHVVYGPWNLPQSSYSHLTRQGETLNFLEIGYSRCCHCRSHTNRLECAKLVWEEAMSRFCEAEFSVKTRPHWCCTRQGEARFSCFQEEAPQPHYQLRACPSHQPDISSGLELPFPPGVPTLDNIKNICHLRRFRSVPRNLPATDPLQRELLALIQLEREFQRCCRQGNNHTCTWKAWEDTLDKYCDREYAVKTHHHLCCRHPPSPTRDECFARRAPYPNYDRDILTIDIGRVTPNLMGHLCGNQRVLTKHKHIPGLIHNMTARCCDLPFPEQACCAEEEKLTFINDLCGPRRNIWRDPALCCYLSPGDEQVNCFNINYLRNVALVSGDTENAKGQGEQGSTGGTNISSTSEPKEE” as the sequence, how does the “percentage of EdU-negative” value (hTERT-HMEC; [3]) read?
Answer: 5.01 ± 0.46%

Question: And the “percentage of EdU-negative” value (hTERT-HMEC; [4])?
Answer: 4.52 ± 0.66%

Question: And the “percentage of EdU-negative” value (hTERT-HMEC; [5])?
Answer: 5.74 ± 0.78%

Question: And the “percentage of EdU-negative” value (hTERT-HMEC; [6])?
Answer: 5.29 ± 0.63%

Question: What about the “percentage of EdU-negative” value (MCF7; [3]) of the same sequence?
Answer: 23.4 ± 2%

Question: And the “percentage of EdU-negative” value (MCF7; [4])?
Answer: 25.6 ± 1.1%

Question: What about the “percentage of EdU-negative” value (MCF7; [5]) of the same sequence?
Answer: 25.7 ± 1.2%

Question: And the “percentage of EdU-negative” value (MCF7; [6])?
Answer: 26 ± 1.7%

Question: “MTILGTTFGMVFSLLQVVSGESGYAQNGDLEDAELDDYSFSCYSQLEVNGSQHSLTCAFEDPDVNITNLEFEICGALVEVKCLNFRKLQEIYFIETKKFLLIGKSNICVKVGEKSLTCKKIDLTTIVKPEAPFDLSVVYREGANDFVVTFNTSHLQKKYVKVLMHDVAYRQEKDENKWTHVNLSSTKLTLLQRKLQPAAMYEIKVRSIPDHYFKGFWSEWSPSYYFRTPEINNSSGEMDPILLTISILSFFSVALLVILACVLWKKRIKPIVWPSLPDHKKTLEHLCKKPRKNLNVSFNPESFLDCQIHRVDDIQARDEVEGFLQDTFPQQLEESEKQRLGGDVQSPNCPSEDVVITPESFGRDSSLTCLAGNVSACDAPILSSSRSLDCRESGKNGPHVYQDLLLSLGTTNSTLPPPFSLQSGILTLNPVAQGQPILTSLGSNQEEAYVTMSSFYQNQ” was tested. Which “percentage of EdU-negative” value (hTERT-HMEC; [7]) did it give?
Answer: 5.3 ± 0.72%

Question: And the “percentage of EdU-negative” value (hTERT-HMEC; [8])?
Answer: 5.96 ± 0.062%

Question: What about the “percentage of EdU-negative” value (MCF7; [7]) of the same sequence?
Answer: 28.1 ± 1.4%

Question: And the “percentage of EdU-negative” value (MCF7; [8])?
Answer: 27.6 ± 2.4%

Question: Which results are given for “MGGRVFLAFCVWLTLPGAETQDSRGCARWCPQNSSCVNATACRCNPGFSSFSEIITTPTETCDDINECATPSKVSCGKFSDCWNTEGSYDCVCSPGYEPVSGAKTFKNESENTCQDVDECQQNPRLCKSYGTCVNTLGSYTCQCLPGFKFIPEDPKVCTDVNECTSGQNPCHSSTHCLNNVGSYQCRCRPGWQPIPGSPNGPNNTVCEDVDECSSGQHQCDSSTVCFNTVGSYSCRCRPGWKPRHGIPNNQKDTVCEDMTFSTWTPPPGVHSQTLSRFFDKVQDLGRDSKTSSAEVTIQNVIKLVDELMEAPGDVEALAPPVRHLIATQLLSNLEDIMRILAKSLPKGPFTYISPSNTELTLMIQERGDKNVTMGQSSARMKLNWAVAAGAEDPGPAVAGILSIQNMTTLLANASLNLHSKKQAELEEIYESSIRGVQLRRLSAVNSIFLSHNNTKELNSPILFAFSHLESSDGEAGRDPPAKDVMPGPRQELLCAFWKSDSDRGGHWATEGCQVLGSKNGSTTCQCSHLSSFAILMAHYDVEDWKLTLITRVGLALSLFCLLLCILTFLLVRPIQGSRTTIHLHLCICLFVGSTIFLAGIENEGGQVGLRCRLVAGLLHYCFLAAFCWMSLEGLELYFLVVRVFQGQGLSTRWLCLIGYGVPLLIVGVSAAIYSKGYGRPRYCWLDFEQGFLWSFLGPVTFIILCNAVIFVTTVWKLTQKFSEINPDMKKLKKARALTITAIAQLFLLGCTWVFGLFIFDDRSLVLTYVFTILNCLQGAFLYLLHCLLNKKVREEYRKWACLVAGGSKYSEFTSTTSGTGHNQTRALRASESGI”?
Answer: percentage of EdU-negative (hTERT-HMEC; [2]): 5.19 ± 0.7%; percentage of EdU-negative (hTERT-HMEC; protein concentration 0.225 µM): 5.66 ± 0.12%; percentage of EdU-negative (MCF7; [2]): 24.7 ± 1.8%; percentage of EdU-negative (MCF7; protein concentration 0.225 µM): 26.3 ± 3.2%
